Assay [1] has as its target T1, HD-PTP(1–361;T145K) (human, UniProt Q9H3S7 1-361, T145K).
T1 sequence: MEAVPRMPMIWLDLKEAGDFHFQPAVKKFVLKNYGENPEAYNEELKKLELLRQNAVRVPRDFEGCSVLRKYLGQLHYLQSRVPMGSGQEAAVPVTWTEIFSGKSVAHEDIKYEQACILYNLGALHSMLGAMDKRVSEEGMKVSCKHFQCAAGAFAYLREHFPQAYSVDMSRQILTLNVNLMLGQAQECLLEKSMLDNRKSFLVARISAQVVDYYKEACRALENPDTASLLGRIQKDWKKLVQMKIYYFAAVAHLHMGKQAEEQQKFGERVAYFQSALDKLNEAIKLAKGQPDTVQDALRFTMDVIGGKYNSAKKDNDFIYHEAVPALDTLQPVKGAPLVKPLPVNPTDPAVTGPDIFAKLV
As to the kind of experiment: ITC. (ITC needs no label: the signal is the heat of the interaction.)

The target of assay [2] is T2, HD-PTP(1–361;T145R) (human, UniProt Q9H3S7 1-361, T145R).
T2 sequence: T1 sequence with K145R
The experiment in a line: ITC.

Broadly, the Kd is the equilibrium constant for the complex coming apart.

Residue numbers refer to the chain shown, from its start.

On to KEEEDDDMKELENWAGSM [CHMP4B(207–224)], for which the Kd in assay [1] came out at 4.02 µM; in assay [2], 3.89 µM.

The values above are taken from publication PMC4751086 (2016).
